Reference: PMC3990689, “Identification and Characterization of ABA Receptors in Oryza sativa” (PLoS ONE, 2014)
Values belong to the molecule of their own block, whether it stands above or below them.

Columns and labels:
OsPYL2 = target: T1, OsPYL2 (Oryza sativa, UniProt Q5Z8S0); experiment: isothermal titration calorimetry; format: binding
T1 construct: gene PYL9; recombinant, E. coli BL21(DE3), pET-15b, Ni-NTA; mainly dimer; residues named: K74, F76, V98, L102, P103, A104, S107, E109, V125, L132, E162, F180, V184, N188
T1 sequence (Q5Z8S0 1-207): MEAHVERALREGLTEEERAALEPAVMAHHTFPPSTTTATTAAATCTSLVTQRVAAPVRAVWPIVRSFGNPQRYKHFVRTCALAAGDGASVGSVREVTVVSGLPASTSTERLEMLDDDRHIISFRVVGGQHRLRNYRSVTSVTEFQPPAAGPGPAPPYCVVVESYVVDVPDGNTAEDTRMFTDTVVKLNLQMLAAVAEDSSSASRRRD

OsPYL11 (with OsPP2C09) = target: T2, OsPYL11 (with OsPP2C09) (Oryza sativa, UniProt Q6I5C3); experiment: Ser/Thr phosphatase assay, inhibition of OsPP2C09 by receptor; format: biochemical; conditions: ABA ten fold of OsPYL; OsPP2C09 1.8 µM; read at 630 nm
T2 construct: gene PYL5; recombinant, E. coli BL21(DE3), pET-15b; OsPYL11 monomer; equals OsPYL/RCAR5 of earlier work; with Probable protein phosphatase 2C 9
T2 sequence (Q6I5C3 1-209): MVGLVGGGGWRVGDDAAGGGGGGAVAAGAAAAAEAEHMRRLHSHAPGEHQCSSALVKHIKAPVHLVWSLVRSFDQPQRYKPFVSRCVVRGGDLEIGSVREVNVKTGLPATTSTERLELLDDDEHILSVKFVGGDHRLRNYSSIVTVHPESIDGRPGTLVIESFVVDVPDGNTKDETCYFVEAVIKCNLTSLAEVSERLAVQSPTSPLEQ
T2 sequence (Q5N9N2 1-414 partner): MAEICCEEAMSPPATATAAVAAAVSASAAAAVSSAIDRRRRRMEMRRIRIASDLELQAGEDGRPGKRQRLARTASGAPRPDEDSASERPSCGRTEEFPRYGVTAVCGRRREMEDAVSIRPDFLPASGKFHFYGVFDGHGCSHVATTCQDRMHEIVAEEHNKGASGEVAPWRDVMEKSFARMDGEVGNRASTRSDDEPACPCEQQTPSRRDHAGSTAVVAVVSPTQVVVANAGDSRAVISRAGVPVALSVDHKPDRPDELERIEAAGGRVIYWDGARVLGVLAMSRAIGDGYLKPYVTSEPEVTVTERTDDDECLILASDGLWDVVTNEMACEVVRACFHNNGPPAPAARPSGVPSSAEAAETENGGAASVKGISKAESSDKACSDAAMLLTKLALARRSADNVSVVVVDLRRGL

[1] = target: OsPYL12 (Oryza sativa (japonica cultivar-group)); experiment: SEC; Superdex-200 HR10/300 GL, 25 mM HEPES pH 7.0, 150 mM NaCl; 500 µL OsPYL (OD280 = 0.75) applied; oligomerization state
[2] = target: OsPYL12 (Oryza sativa (japonica cultivar-group)); experiment: static light scattering; DAWN HELLOS II (Wyatt) at 18°C; OsPYLs about 2 mg/mL; calibrated with albumin monomer standard; oligomerization state
[3] = target: OsPYL12 (Oryza sativa (japonica cultivar-group)); experiment: AUC; sedimentation velocity at 4°C, 40,000 rpm; OsPYL proteins at OD280 = 0.75; absorbance at 280 nm; oligomerization state
[4] = target: OsPYL1 (Oryza sativa (japonica cultivar-group)); experiment: SEC; Superdex-200 HR10/300 GL, 25 mM HEPES pH 7.0, 150 mM NaCl; 500 µL OsPYL (OD280 = 0.75) applied; oligomerization state
[5] = target: OsPYL1 (Oryza sativa (japonica cultivar-group)); experiment: static light scattering; DAWN HELLOS II (Wyatt) at 18°C; OsPYLs about 2 mg/mL; calibrated with albumin monomer standard; oligomerization state
[6] = target: OsPYL1 (Oryza sativa (japonica cultivar-group)); experiment: AUC; sedimentation velocity at 4°C, 40,000 rpm; OsPYL proteins at OD280 = 0.75; absorbance at 280 nm; oligomerization state
[7] = target: the molecule itself; experiment: SEC; Superdex-200 HR10/300 GL, 25 mM HEPES pH 7.0, 150 mM NaCl; 500 µL OsPYL (OD280 = 0.75) applied; oligomerization state

Kd (OsPYL2): ~31.3 µM
Molecule: CC1=CC(=O)CC(C)(C)C1(O)/C=C/C(C)=C\C(=O)O (stereo in doubt) [(+)-ABA]
Ser/Thr phosphatase assay, inhibition of OsPP2C09 by receptor (OsPYL11 (with OsPP2C09)): in the presence of ABA, all of the OsPYLs proteins could completely inhibit

stoichiometry N [1]: 2
stoichiometry N [2]: 2
stoichiometry N [3]: 2
Molecule: OsPYL12 (receptor)

stoichiometry N [4]: 2
stoichiometry N [5]: 2
stoichiometry N [6]: 2
Molecule: OsPYL1 (receptor)

B1: OsPYL2 (receptor, Oryza sativa (japonica cultivar-group))
chain: T1 sequence (Q5Z8S0 1-207)
notes: OsPYL2, ABA receptor (PYR1/PYL/RCAR ortholog) of Oryza sativa (japonica cultivar-group); Dimer when alone in solution (SEC, SLS, AU); stands with OsPP2C06 and ABA in the crystallised ternary complex; source: E. coli BL21 (DE3), vector pET-15b, purified (Ni-NTA, Source-15Q, Superdex-200); for the complex coexpressed with His6-OsPP2C06 (132-467) in E. coli BL21 (DE3) and purified with 0.2 mM (+)-ABA
stoichiometry N [7]: 2

B2: OsPYL3 (receptor)
chain: ERGRGGVGAEDARGGADEVAARERLEGVVRAHHTFPAAERAAGPGRRPTCTSLVAQRVDAPLAAVWPIVRGFANPQRYKHFIKSCELAAGDGATVGSVREVAVVSGLPASTSTERLEILDDDRHVLSFRVVGGDHRLRNYRSVTSVTEFSSPSSPPRPYCVVVESYVVDVPEGNTEEDTRMFTDTVVKLNLQKLAAVATSSSPPAAGNHH
stoichiometry N [7]: 2
